Reference: article PMC6469041 (BMC Microbiology, 2019)

Legend:
[1] = target: T1, PhnCDE (strain RS07, phn+3Δ) (Escherichia coli, UniProt A0A140NFA3+P16682); test: competition of […] uptake by intact cells; type: cell-based; settings: 10 µM 32Pi, 4 mM AePn added 50 s later; strain used for this test not named
T1 construct: gene phnD; native chromosomal ABC transporter in intact cells of RS07 (MG1655 ΔpitA ΔugpBAEC ΔpstSCAB-phoU phnE+); phnE is the functional BL21 allele without the 8 bp insertion of K-12; phnC and phnD may be of K-12 or co-transduced from BL21
T1 sequence (P16682 27-338): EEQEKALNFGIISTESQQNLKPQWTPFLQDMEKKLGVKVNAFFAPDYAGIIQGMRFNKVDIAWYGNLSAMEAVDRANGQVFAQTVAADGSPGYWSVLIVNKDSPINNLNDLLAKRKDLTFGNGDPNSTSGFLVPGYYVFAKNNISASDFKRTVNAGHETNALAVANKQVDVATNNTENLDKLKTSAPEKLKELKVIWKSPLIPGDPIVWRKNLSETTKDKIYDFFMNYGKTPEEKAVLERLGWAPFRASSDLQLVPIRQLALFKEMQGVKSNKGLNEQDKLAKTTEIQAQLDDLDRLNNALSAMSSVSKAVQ
T1 sequence (A0A140NFA3 1-259): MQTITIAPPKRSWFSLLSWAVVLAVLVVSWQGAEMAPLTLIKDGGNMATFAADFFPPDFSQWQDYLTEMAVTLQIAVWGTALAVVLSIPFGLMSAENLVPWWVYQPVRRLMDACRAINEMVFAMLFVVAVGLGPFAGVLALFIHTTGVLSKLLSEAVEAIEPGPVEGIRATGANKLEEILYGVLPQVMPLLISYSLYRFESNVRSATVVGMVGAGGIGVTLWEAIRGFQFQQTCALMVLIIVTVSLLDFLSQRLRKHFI
T1 sequence (P16677 1-262 partner): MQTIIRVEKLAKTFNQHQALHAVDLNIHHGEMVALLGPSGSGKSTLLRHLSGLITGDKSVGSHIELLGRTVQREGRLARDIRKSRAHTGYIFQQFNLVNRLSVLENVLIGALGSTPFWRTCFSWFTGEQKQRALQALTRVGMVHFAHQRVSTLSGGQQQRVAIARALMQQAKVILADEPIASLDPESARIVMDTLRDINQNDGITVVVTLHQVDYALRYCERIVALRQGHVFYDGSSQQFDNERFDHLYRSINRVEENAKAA

[2] = substrate: O=P(O)(O)O; test: cells, lysate or membranes

Question: How did the “inhibition of Pi uptake at 4 mM” value [1] turn out when `NCCP(=O)(O)O` [AePn, aminoethylphosphonate] was run?
Answer: addition of AePn strongly inhibited Pi uptake when compared to the control

B1: PhnCDE (strain RS07, phn+3Δ) (Escherichia coli BL21(DE3)) (protein)
chain 1: EEQEKALNFGIISTESQQNLKPQWTPFLQDMEKKLGVKVNAFFAPDYAGIIQGMRFNKVDIAWYGNLSAMEAVDRANGQVFAQTVAADGSPGYWSVLIVNKDSPINNLNDLLAKRKDLTFGNGDPNSTSGFLVPGYYVFAKNNISASDFKRTVNAGHETNALAVANKQVDVATNNTENLDKLKTSAPEKLKELKVIWKSPLIPGDPIVWRKNLSETTKDKIYDFFMNYGKTPEEKAVLERLGWAPFRASSDLQLVPIRQLALFKEMQGVKSNKGLNEQDKLAKTTEIQAQLDDLDRLNNALSAMSSVSKAVQ
chain 2: MQTITIAPPKRSWFSLLSWAVVLAVLVVSWQGAEMAPLTLIKDGGNMATFAADFFPPDFSQWQDYLTEMAVTLQIAVWGTALAVVLSIPFGLMSAENLVPWWVYQPVRRLMDACRAINEMVFAMLFVVAVGLGPFAGVLALFIHTTGVLSKLLSEAVEAIEPGPVEGIRATGANKLEEILYGVLPQVMPLLISYSLYRFESNVRSATVVGMVGAGGIGVTLWEAIRGFQFQQTCALMVLIIVTVSLLDFLSQRLRKHFI
Question: For B1, which Km ([2]; 5-20 µM KH2PO4, TG medium (Tris T-salts, glucose) pH 7.5, labelled compound) is on record?
Answer: 19.46 µM

B2: PitA (strain RS04, pitA+3Δ) (Escherichia coli K-12) (protein)
chain: MLHLFAGLDLHTGLLLLLALAFVLFYEAINGFHDTANAVATVIYTRAMRSQLAVVMAAVFNFLGVLLGGLSVAYAIVHMLPTDLLLNMGSSHGLAMVFSMLLAAIIWNLGTWYFGLPASSSHTLIGAIIGIGLTNALMTGTSVVDALNIPKVLSIFGSLIVSPIVGLVFAGGLIFLLRRYWSGTKKRARIHLTPAEREKKDGKKKPPFWTRIALILSAIGVAFSHGANDGQKGIGLVMLVLIGVAPAGFVVNMNATGYEITRTRDAINNVEAYFEQHPALLKQATGADQLVPAPEAGATQPAEFHCHPSNTINALNRLKGMLTTDVESYDKLSLDQRSQMRRIMLCVSDTIDKVVKMPGVSADDQRLLKKLKSDMLSTIEYAPVWIIMAVALALGIGTMIGWRRVATTIGEKIGKKGMTYAQGMSAQMTAAVSIGLASYTGMPVSTTHVLSSSVAGTMVVDGGGLQRKTVTSILMAWVFTLPAAVLLSGGLYWLSLQFL
Question: For B2, which Km ([2]; 15-50 µM KH2PO4, TG medium (Tris T-salts, glucose) pH 7.5, labelled compound) is on record?
Answer: 25.99 µM
